From the supplement of paper PMC9112550, “Optimization of the antimicrobial peptide Bac7 by deep mutational scanning” (BMC Biology, 2022)

System: Escherichia coli TOP10
Assay: shrunken log2 fold change of peptide-encoding DNA abundance (4.5 h post-induction vs induction); higher = less antimicrobial activity (less host growth inhibition)
Conditions: time post-induction: 4.5 h; library: site-saturation at positions 5, 18, 19, 20
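Further: peptides expressed intracellularly from a pBAD plasmid library in pooled LB shake-flask culture, induced with 0.3% L-arabinose, DNA abundance read by NGS, three biological replicates, DESeq2 with apeglm shrinkage.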

How did the “shrunken log2 fold change” value turn out when RRIRPRPPRLPRPRPRPYSGPRP was run?
The value was -0.524.

For RRIRPRPPRLPRPRPRPYSHPRP, which “shrunken log2 fold change” value is on record?
Its value is -1.42.

RRIRPRPPRLPRPRPRPYSTPRP was tested. Which “shrunken log2 fold change” value did it give?
The value was -0.729.

RRIRPRPPRLPRPRPRPYSWPRP was tested. Which “shrunken log2 fold change” value did it give?
Its value is -0.046.

With RRIRPRPPRLPRPRPRPYTKPRP as the sequence, how does the “shrunken log2 fold change” value read?
The value was -0.0218.

With RRIRPRPPRLPRPRPRPYTSPRP as the sequence, how does the “shrunken log2 fold change” value read?
The value was -0.261.

With RRIRPRPPRLPRPRPRPYVKPRP as the sequence, how does the “shrunken log2 fold change” value read?
Its value is -0.172.

RRIRPRPPRLPRPRPRPYVNPRP was tested. Which “shrunken log2 fold change” value did it give?
Its value is -1.34.

For RRIRQRPPRLPRPRPRPAASPRP, which “shrunken log2 fold change” value is on record?
Its value is 0.129.

RRIRQRPPRLPRPRPRPACWPRP was tested. Which “shrunken log2 fold change” value did it give?
Its value is 0.401.

With RRIRQRPPRLPRPRPRPADWPRP as the sequence, how does the “shrunken log2 fold change” value read?
Its value is 0.258.

Which “shrunken log2 fold change” value does the source give for RRIRQRPPRLPRPRPRPAECPRP here?
The value was 0.17.

RRIRQRPPRLPRPRPRPAEHPRP was tested. Which “shrunken log2 fold change” value did it give?
The value was 0.166.

For RRIRQRPPRLPRPRPRPAGCPRP, which “shrunken log2 fold change” value is on record?
The value was 0.409.

With RRIRQRPPRLPRPRPRPAHCPRP as the sequence, how does the “shrunken log2 fold change” value read?
The value was 0.0134.

How did the “shrunken log2 fold change” value turn out when RRIRQRPPRLPRPRPRPAHFPRP was run?
Its value is 0.464.

For RRIRQRPPRLPRPRPRPAHVPRP, which “shrunken log2 fold change” value is on record?
Its value is -0.139.

RRIRQRPPRLPRPRPRPALRPRP was tested. Which “shrunken log2 fold change” value did it give?
The value was -0.00883.

Which “shrunken log2 fold change” value does the source give for RRIRQRPPRLPRPRPRPAMDPRP here?
The value was -0.00901.

RRIRQRPPRLPRPRPRPAMFPRP was tested. Which “shrunken log2 fold change” value did it give?
The value was 0.0399.

Which “shrunken log2 fold change” value does the source give for RRIRQRPPRLPRPRPRPANRPRP here?
Its value is -0.0467.

Which “shrunken log2 fold change” value does the source give for RRIRQRPPRLPRPRPRPAPIPRP here?
The value was 0.34.

Which “shrunken log2 fold change” value does the source give for RRIRQRPPRLPRPRPRPAQNPRP here?
The value was 0.231.

RRIRQRPPRLPRPRPRPARHPRP was tested. Which “shrunken log2 fold change” value did it give?
Its value is 0.0911.

Which “shrunken log2 fold change” value does the source give for RRIRQRPPRLPRPRPRPARSPRP here?
The value was 0.0407.

For RRIRQRPPRLPRPRPRPARVPRP, which “shrunken log2 fold change” value is on record?
The value was 0.109.

For RRIRQRPPRLPRPRPRPASRPRP, which “shrunken log2 fold change” value is on record?
The value was -0.124.

For RRIRQRPPRLPRPRPRPATLPRP, which “shrunken log2 fold change” value is on record?
Its value is -0.0197.

For RRIRQRPPRLPRPRPRPATWPRP, which “shrunken log2 fold change” value is on record?
The value was 0.343.

With RRIRQRPPRLPRPRPRPAVIPRP as the sequence, how does the “shrunken log2 fold change” value read?
Its value is 0.135.

RRIRQRPPRLPRPRPRPAVPPRP was tested. Which “shrunken log2 fold change” value did it give?
The value was -0.0193.

RRIRQRPPRLPRPRPRPAWHPRP was tested. Which “shrunken log2 fold change” value did it give?
Its value is 0.0212.

With RRIRQRPPRLPRPRPRPCADPRP as the sequence, how does the “shrunken log2 fold change” value read?
Its value is -0.116.

Which “shrunken log2 fold change” value does the source give for RRIRQRPPRLPRPRPRPCAVPRP here?
Its value is 0.0208.

How did the “shrunken log2 fold change” value turn out when RRIRQRPPRLPRPRPRPCFHPRP was run?
The value was -0.425.

RRIRQRPPRLPRPRPRPCFNPRP was tested. Which “shrunken log2 fold change” value did it give?
Its value is -0.161.

Which “shrunken log2 fold change” value does the source give for RRIRQRPPRLPRPRPRPCFWPRP here?
Its value is 0.14.

How did the “shrunken log2 fold change” value turn out when RRIRQRPPRLPRPRPRPCIAPRP was run?
The value was -0.0382.

With RRIRQRPPRLPRPRPRPCILPRP as the sequence, how does the “shrunken log2 fold change” value read?
Its value is -0.458.

Which “shrunken log2 fold change” value does the source give for RRIRQRPPRLPRPRPRPCIRPRP here?
Its value is -0.0303.

With RRIRQRPPRLPRPRPRPCKEPRP as the sequence, how does the “shrunken log2 fold change” value read?
The value was 0.00843.

How did the “shrunken log2 fold change” value turn out when RRIRQRPPRLPRPRPRPCKSPRP was run?
Its value is 0.00854.

With RRIRQRPPRLPRPRPRPCLCPRP as the sequence, how does the “shrunken log2 fold change” value read?
Its value is -0.294.

With RRIRQRPPRLPRPRPRPCLHPRP as the sequence, how does the “shrunken log2 fold change” value read?
The value was -0.0247.

Which “shrunken log2 fold change” value does the source give for RRIRQRPPRLPRPRPRPCLWPRP here?
Its value is -0.162.

With RRIRQRPPRLPRPRPRPCNKPRP as the sequence, how does the “shrunken log2 fold change” value read?
Its value is 0.0281.

For RRIRQRPPRLPRPRPRPCQLPRP, which “shrunken log2 fold change” value is on record?
The value was -0.0105.

Which “shrunken log2 fold change” value does the source give for RRIRQRPPRLPRPRPRPCSIPRP here?
The value was -0.022.

Which “shrunken log2 fold change” value does the source give for RRIRQRPPRLPRPRPRPCSMPRP here?
The value was -0.273.

How did the “shrunken log2 fold change” value turn out when RRIRQRPPRLPRPRPRPCVAPRP was run?
The value was 0.317.

RRIRQRPPRLPRPRPRPCVDPRP was tested. Which “shrunken log2 fold change” value did it give?
Its value is 0.148.

Which “shrunken log2 fold change” value does the source give for RRIRQRPPRLPRPRPRPCVEPRP here?
Its value is -0.206.

For RRIRQRPPRLPRPRPRPCWHPRP, which “shrunken log2 fold change” value is on record?
Its value is -0.129.

How did the “shrunken log2 fold change” value turn out when RRIRQRPPRLPRPRPRPCWMPRP was run?
The value was -0.408.

For RRIRQRPPRLPRPRPRPCWPPRP, which “shrunken log2 fold change” value is on record?
The value was 0.193.

How did the “shrunken log2 fold change” value turn out when RRIRQRPPRLPRPRPRPCYFPRP was run?
The value was -0.734.

RRIRQRPPRLPRPRPRPCYNPRP was tested. Which “shrunken log2 fold change” value did it give?
Its value is -0.0459.

RRIRQRPPRLPRPRPRPDANPRP was tested. Which “shrunken log2 fold change” value did it give?
The value was 0.0607.

How did the “shrunken log2 fold change” value turn out when RRIRQRPPRLPRPRPRPDCPPRP was run?
The value was -0.283.

For RRIRQRPPRLPRPRPRPDDTPRP, which “shrunken log2 fold change” value is on record?
Its value is 0.00151.

How did the “shrunken log2 fold change” value turn out when RRIRQRPPRLPRPRPRPDEFPRP was run?
Its value is -0.0132.

Which “shrunken log2 fold change” value does the source give for RRIRQRPPRLPRPRPRPDEMPRP here?
Its value is -0.0225.

Which “shrunken log2 fold change” value does the source give for RRIRQRPPRLPRPRPRPDETPRP here?
Its value is -0.00179.

How did the “shrunken log2 fold change” value turn out when RRIRQRPPRLPRPRPRPDFSPRP was run?
Its value is 0.0756.

RRIRQRPPRLPRPRPRPDGVPRP was tested. Which “shrunken log2 fold change” value did it give?
Its value is -0.119.

With RRIRQRPPRLPRPRPRPDHNPRP as the sequence, how does the “shrunken log2 fold change” value read?
The value was -0.328.

How did the “shrunken log2 fold change” value turn out when RRIRQRPPRLPRPRPRPDIRPRP was run?
The value was -0.154.

For RRIRQRPPRLPRPRPRPDKRPRP, which “shrunken log2 fold change” value is on record?
The value was 0.00102.

For RRIRQRPPRLPRPRPRPDKTPRP, which “shrunken log2 fold change” value is on record?
The value was -0.00926.

For RRIRQRPPRLPRPRPRPDMEPRP, which “shrunken log2 fold change” value is on record?
Its value is 0.104.

With RRIRQRPPRLPRPRPRPDMHPRP as the sequence, how does the “shrunken log2 fold change” value read?
Its value is 0.161.

With RRIRQRPPRLPRPRPRPDMPPRP as the sequence, how does the “shrunken log2 fold change” value read?
Its value is -0.2.

For RRIRQRPPRLPRPRPRPDNDPRP, which “shrunken log2 fold change” value is on record?
Its value is -0.0011.

With RRIRQRPPRLPRPRPRPDPAPRP as the sequence, how does the “shrunken log2 fold change” value read?
The value was 0.0492.

RRIRQRPPRLPRPRPRPDPKPRP was tested. Which “shrunken log2 fold change” value did it give?
The value was 0.0129.
